Results: article PMC3672174
Several values for one entry are separate records, joined by “and”; a condition that tells them apart may be missing. Equal values may be shown once.

What was measured:
[1] = molecular target: human serum amyloid A 1.1 with the N-terminal methionine (MetSAA1.1) (human) (UniProt P0DJI8); assay: SEC; "cross-purified" proteins (MetSAA1.1 also passed through Histrap Ni-NTA; hSAA1.1 also purified by cation and anion exchange), compared with "regular" proteins, refolded at 20 µM, 4°C; self-association
[2] = molecular target: human serum amyloid A 1.1 with the N-terminal methionine (MetSAA1.1) (human) (UniProt P0DJI8); assay: SEC; as a1, protein refolded at 8.5 µM; self-association
[3] = molecular target: human serum amyloid A 1.1 with the N-terminal methionine (MetSAA1.1) (human) (UniProt P0DJI8); assay: SEC; Superdex 200 10/300 GL, 4°C, protein refolded at 20 µM, ~30 µL loaded, column in TBS (20 mM Tris/200 mM NaCl, pH 8.3), 0.5 mL/min; sizes from MW standards, globular shape assumed; self-association
[4] = molecular target: human serum amyloid A 1.1 with the N-terminal methionine (MetSAA1.1) (human) (UniProt P0DJI8); assay: SEC; as a1, protein refolded at 75 µM; self-association
[5] = molecular target: human serum amyloid A 1.1 (hSAA1.1), without the N-terminal methionine (human) (UniProt P0DJI8); assay: SEC; as a1, protein refolded at 8.5 µM; self-association
[6] = molecular target: human serum amyloid A 1.1 (hSAA1.1), without the N-terminal methionine (human) (UniProt P0DJI8); assay: SEC; Superdex 200 10/300 GL, 4°C, protein refolded at 20 µM, ~30 µL loaded, column in TBS (20 mM Tris/200 mM NaCl, pH 8.3), 0.5 mL/min; sizes from MW standards, globular shape assumed; self-association
[7] = molecular target: human serum amyloid A 1.1 (hSAA1.1), without the N-terminal methionine (human) (UniProt P0DJI8); assay: SEC; as a1, protein refolded at 75 µM; self-association

## human serum amyloid A 1.1 with the N-terminal methionine (MetSAA1.1) (from UniProt P0DJI8 19-122) (natural protein)
[1]
  stoichiometry N: 4
[2]
  stoichiometry N: 8 and 4
[3]
  stoichiometry N: 4 and 8
[4]
  stoichiometry N: 4 and 8

## human serum amyloid A 1.1 (hSAA1.1), without the N-terminal methionine (from UniProt P0DJI8 19-122) (natural protein)
[5]
  stoichiometry N: 4 and 8
[6]
  stoichiometry N: 8 and 6
[7]
  stoichiometry N: 8 and 6
